Experimental data as given in the supplement of paper PMC10567573.

B1: TRIB1 (parent)
chain: EIGTSDQIVPEYQEDSDISSFFC

Variants of: B1
Test: protein stability index of a GFP-peptide fusion (GPS, HEK-293T) (PSI 1-6); higher = more stable
Conditions: c terminus: native
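Further: lentivirally expressed fusions sorted by FACS into six bins by GFP to DsRed ratio, PSI derived from sequencing read proportions per bin multiplied by bin number.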

Variant	protein stability index
EIGTSDQIVPEYQEDSDISSQFC	4.23
EIGTSDQIVPEYQEDSDISSGFC	3.97
EIGTSDQIVPEYQEDSDISSEFC	4.43
EIGTSDQIVPEYQEDSDISSRFC	3.64
EIGTSDQIVPEYQEDSDISSPFC	4.6
EIGTSDQIVPEYQEDSDISSMFC	3.85
EIGTSDQIVPEYQEDSDISSSFC	4.08
EIGTSDQIVPEYQEDSDISSHFC	4.58
EIGTSDQIVPEYQEDSDISSNFC	4.7
EIGTSDQIVPEYQEDSDISSTFC	4.78
EIGTSDQIVPEYQEDSDISSWFC	2.89
EIGTSDQIVPEYQEDSDISSIFC	3.59
EIGTSDQIVPEYQEDSDISSLFC	3.45
EIGTSDQIVPEYQEDSDISSYFC	2.64
EIGTSDQIVPEYQEDSDISSKFC	4.67
EIGTSDQIVPEYQEDSDISSDFC	3.9
EIGTSDQIVPEYQEDSDISSVFC	3.89
EIGTSDQIVPEYQEDSDISSAFC	3.98
EIGTSDQIVPEYQEDSDISSCFC	3.5
EIGTSDQIVPEYQEDSDISSFFM	1.73
EIGTSDQIVPEYQEDSDISSFFS	2.8
EIGTSDQIVPEYQEDSDISSFFK	4.49
EIGTSDQIVPEYQEDSDISSFFT	2.1
EIGTSDQIVPEYQEDSDISSFFI	2.67
EIGTSDQIVPEYQEDSDISSFFF	2.29

Variant	protein stability index
EIGTSDQIVPEYQEDSDISSFFE	2.94
EIGTSDQIVPEYQEDSDISSFFH	3.65
EIGTSDQIVPEYQEDSDISSFFR	4.18
EIGTSDQIVPEYQEDSDISSFFQ	3.76
EIGTSDQIVPEYQEDSDISSFFL	2.9
EIGTSDQIVPEYQEDSDISSFFP	3.44
EIGTSDQIVPEYQEDSDISSFFG	3.67
EIGTSDQIVPEYQEDSDISSFFN	3.73
EIGTSDQIVPEYQEDSDISSFFD	2.51
EIGTSDQIVPEYQEDSDISSFFA	3.08
EIGTSDQIVPEYQEDSDISSFSC	4.48
EIGTSDQIVPEYQEDSDISSFWC	1.98
EIGTSDQIVPEYQEDSDISSFVC	3.88
EIGTSDQIVPEYQEDSDISSFAC	4.11
EIGTSDQIVPEYQEDSDISSFYC	2.03
EIGTSDQIVPEYQEDSDISSFDC	3.86
EIGTSDQIVPEYQEDSDISSFGC	4.79
EIGTSDQIVPEYQEDSDISSFLC	3.36
EIGTSDQIVPEYQEDSDISSFCC	3.45
EIGTSDQIVPEYQEDSDISSFIC	4.03
EIGTSDQIVPEYQEDSDISSFRC	4.7
EIGTSDQIVPEYQEDSDISSFPC	4.55
EIGTSDQIVPEYQEDSDISSFNC	4.54
EIGTSDQIVPEYQEDSDISSFHC	4.3
EIGTSDQIVPEYQEDSDISSFTC	4.48

Variant	protein stability index
EIGTSDQIVPEYQEDSDISSFEC	4.3
EIGTSDQIVPEYQEDSDISSFMC	3.16
EIGTSDQIVPEYQEDSDISSFKC	5.29
EIGTSDQIVPEYQEDSDISSFQC	4.82
EIGTSDQIVPEYQEDSDIGSFFC	2.05
EIGTSDQIVPEYQEDSDIESFFC	2.83
EIGTSDQIVPEYQEDSDICSFFC	2.38
EIGTSDQIVPEYQEDSDIFSFFC	1.99
EIGTSDQIVPEYQEDSDIHSFFC	2.89
EIGTSDQIVPEYQEDSDIVSFFC	2.72
EIGTSDQIVPEYQEDSDIRSFFC	3.83
EIGTSDQIVPEYQEDSDITSFFC	2.35
EIGTSDQIVPEYQEDSDIKSFFC	4.21
EIGTSDQIVPEYQEDSDILSFFC	2.32
EIGTSDQIVPEYQEDSDIMSFFC	1.75
EIGTSDQIVPEYQEDSDIQSFFC	3.48
EIGTSDQIVPEYQEDSDIISFFC	1.83
EIGTSDQIVPEYQEDSDINSFFC	2.92
EIGTSDQIVPEYQEDSDIWSFFC	1.56
EIGTSDQIVPEYQEDSDIDSFFC	2.67
EIGTSDQIVPEYQEDSDIPSFFC	2.94
EIGTSDQIVPEYQEDSDIYSFFC	1.84
EIGTSDQIVPEYQEDSDIASFFC	3.16
EIGTSDQIVPEYQEDSDTSSFFC	3.64
EIGTSDQIVPEYQEDSDSSSFFC	3.64

Variant	protein stability index
EIGTSDQIVPEYQEDSDYSSFFC	3.25
EIGTSDQIVPEYQEDSDVSSFFC	3.08
EIGTSDQIVPEYQEDSDWSSFFC	2.41
EIGTSDQIVPEYQEDSDISQFFC	3.21
EIGTSDQIVPEYQEDSDISPFFC	3.44
EIGTSDQIVPEYQEDSDISIFFC	2.32
EIGTSDQIVPEYQEDSDISKFFC	4.34
EIGTSDQIVPEYQEDSDISNFFC	2.83
EIGTSDQIVPEYQEDSDISEFFC	2.37
EIGTSDQIVPEYQEDSDISVFFC	2.53
EIGTSDQIVPEYQEDSDISAFFC	3.2
EIGTSDQIVPEYQEDSDISTFFC	3.07
EIGTSDQIVPEYQEDSDISFFFC	2.81
EIGTSDQIVPEYQEDSDISLFFC	1.79
EIGTSDQIVPEYQEDSDISWFFC	2.35
EIGTSDQIVPEYQEDSDISCFFC	2.49
EIGTSDQIVPEYQEDSDISDFFC	2.3
EIGTSDQIVPEYQEDSDISGFFC	3.23
EIGTSDQIVPEYQEDSDISMFFC	2.62
EIGTSDQIVPEYQEDSDISYFFC	2.42
EIGTSDQIVPEYQEDSDISRFFC	3.89
EIGTSDQIVPEYQEDSDISHFFC	3.57
